41 sequences from the nanobody polyreactivity screen of Harvey et al. (2022) can be followed below.

This series is described as follows: yeast display, Sf9 membrane polyspecificity reagent, FACS + sequencing; frameworks hold sequencing errors. In short, it runs like this:
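Polyreactivity labels are assigned by the sorting gate from which each nanobody was recovered. The gates were low and high (top ~1%), set on anti-HA fluorescence for expression and streptavidin fluorescence for reagent binding. Before sorting, galactose-induced (36–48 hours) yeast display cells were stained for 1 hour at 4 °C with 10% biotinylated, detergent-solubilized Sf9 membrane reagent.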
Take “QVQLVESGGGLVQAGGSLRLSCAASGSTFSANTKGWYRQAPGTERELVAGITNTGDTYYADSVKGRFTISRDNAKNTVYLQMNSLKPEDTAVYYCAADSWRRTDGAYWSTVYYWGQGTQVTVSS”: the “polyreactivity (PSR sort gate)” value is given as “low polyreactivity”. “QVQLVESGGGLVQAGGSLRLSCAASGSTFSDNAMGGYRQAPGKERELVAAINETGGSTYYADSVKGRFTISRDNAKNTVYLQMNSLKPEDTAVYYCNADIDPYGATYAIEYDYWGQGTQVTVSS”: the “polyreactivity (PSR sort gate)” value is recorded as “low polyreactivity”.

Regarding “QVQLVESGGGLVQAGGSLRLSCAASGSTFSDNAMGWYRQAPGKEREFVAAINETGGSTYYADSVKGRFTISRDNAKNTVYVQMNSLKPEDTAVYYCNADIDPYGATYAIEYDYWGQGTQVTVSS”, the “polyreactivity (PSR sort gate)” value is “low polyreactivity”. The value for “QVQLVESGGGLVQAGGSLRLSCAASGSTFSDNAMGWYRQAPGKERELVAAITSGGSTYYADSVKGRFTISRDNAKNTVYLQMNSLKPEDTAVYYCAADYWGQGTQVTVSS” was “low polyreactivity”; that for “QVQLVESGGGLVQAGGSLRLSCAASGSTFSDYAMGWYRQAPGKERELVAAISRRGGSTYYADSVKGRFTISRDNAKNTVYLQMNSLKPEDTAVYYCAKAAYPWTRMEYWGQGTQVTVSS” was “high polyreactivity”. “QVQLVESGGGLVQAGGSLRLSCAASGSTFSDYVMGWYRQAPGKERELVAAISWSGDRTYYADSVKGRFTISRDNAKNTFYLQMNSLKPEDTAVYYCAAEYAPSDPSYYYGYDYWGQGTQVTVSS”: the “polyreactivity (PSR sort gate)” value is on record as “high polyreactivity”.

Take “QVQLVESGGGLVQAGGSLRLSCAASGSTFSENAMGWYRQAPGKERELVAAISWGGGSTYYADSVKGRFTISRDYAKNTVYLQMNSLKPEDTAVYYCNADVFDDYGYFESDYWGQGTQVTVSS”: the “polyreactivity (PSR sort gate)” value was “low polyreactivity”. As for “QVQLVESGGGLVQAGGSLRLSCAASGSTFSFNAMGWYRQAPGKERELVAAIRWSGGSTYYADSVKGRFTISRDNAKNTVYLQMNSLKPEDTAVYYCATYWKGGRPPYRYYYWGQGTQVTVSS”, the “polyreactivity (PSR sort gate)” value was “high polyreactivity”. Then “QVQLVESGGGLVQAGGSLRLSCAASGSTFSFNDMGWYRQAPGKERELVADISWSGDTTYADSVKGRFTISRDNAKKTVYLQMNSLKPEDTGVYYCDADRHRYQGYTYDYWGQGTQVTVSS”, with “high polyreactivity”; and “QVQLVESGGGLVQAGGSLRLSCAASGSTFSFYAMGWYRQAPGKERELVAAIRAGTRTYYADSVKGRFTISRDNAKNTVYLQMNSLKPEDTAVYYCAATRRRYPYYYWGQGTQVTVSS”, with “high polyreactivity”. Regarding “QVQLVESGGGLVQAGGSLRLSCAASGSTFSGYAMGWYRQAPGKEREFVATISISGGSTYYADSVKGRFTISRDNAKNTVYLQMNSLKPEDTAVYYCNADYYFSWGSIVDYWGQGTQVTVSS”, the “polyreactivity (PSR sort gate)” value is “low polyreactivity”.

Consider “QVQLVESGGGLVQAGGSLRLSCAASGSTFSGYAMGWYRQAPGKERELVAAISYSGGGTYYEDSVKGRFTISRDNAKNTVYLQMNSLKPEDTAVYYCATLGSLRYYWPGYDYWGQGTQVTVSS”, for which the “polyreactivity (PSR sort gate)” value is given as “low polyreactivity”.

On to “QVQLVESGGGLVQAGGSLRLSCAASGSTFSGYAMGWYSQAPGKERELVAAISWSGGRTYYADSVNGRFTISRDNAKNTVYLQMNSLKPEDTAVYYCDAVRKSAYEYWGQGTQVTVSS”, for which the “polyreactivity (PSR sort gate)” value is given as “high polyreactivity”.

Turning to “QVQLVESGGGLVQAGGSLRLSCAASGSTFSIYAMGWYRQAPGKERELVAAITSDGSTYYADSVKGRFTISRDNAKNTVYLQMNSLKPEDTAVYYCAADWWYGWVSYEYWGQGTQVTVSS”, the “polyreactivity (PSR sort gate)” value was “high polyreactivity”. In the case of “QVQLVESGGGLVQAGGSLRLSCAASGSTFSKNAMGWYRPAPGKERELVAAIRSRGGSTYYADSVKGRFTISRDNAKNTVYLQMNSLKPEDTAVYYCAAQYFWYVYSYDYWGQGTQVTVSS”, the “polyreactivity (PSR sort gate)” value is “high polyreactivity”. The value for “QVQLVESGGGLVQAGGSLRLSCAASGSTFSKYAMGWYRQAPGKERELEAAITRTGGRTYYADSVKGRFTISRDNANNTVYLQMNSLKPEDTAVYYCAASATFWGQGTQVTVSS” was “high polyreactivity”; that for “QVQLVESGGGLVQAGGSLRLSCAASGSTFSKYAMGWYRQAPGKERELVAAINYGGTSTYYADSVKGRFTISRDNAKNTVYLQMNSLKPEDTAVYYCAVIYRRLYTGGQNPYDYWGQGTQVTVSS” was “high polyreactivity”; that for “QVQLVESGGGLVQAGGSLRLSCAASGSTFSKYAMGWYRQAPGKERELVAAISRSGGNTYYADSVKGRFTISRDNAKNTVYLQMNSLKPEDTAVYYCATTLYSYSTGRYRLDYWGQGTQVTVSS” was “high polyreactivity”. As for “QVQLVESGGGLVQAGGSLRLSCAASGSTFSLNAMGWYRQAPGKERELVAAISNVGDTYYADSVKGRFTISRDNAKNTVYLQMNSLKPEDTAVYYCAADGASYYYEYDYWGQGTQVTVSS”, the “polyreactivity (PSR sort gate)” value is listed as “low polyreactivity”. Turning to “QVQLVESGGGLVQAGGSLRLSCAASGSTFSLYARGWYRQAPGKETELVAAITRGGNTYYADSVKGRFTISRDNAKNTVYLQMNSLKPEDTAVYYCNAYYYQFRGIRVSGGYWGQGTQVTVSS”, the “polyreactivity (PSR sort gate)” value is “high polyreactivity”. For the sequence “QVQLVESGGGLVQAGGSLRLSCAASGSTFSLYDMGWYRQAPGKERELVAAISYSGGSTYYADSVKGRFTISRDNAKNTVYLQMNSLKPEDTAVFYCATRLFYPRFFYWGQGTQVTVSS”, the “polyreactivity (PSR sort gate)” value is on record as “high polyreactivity”. On to “QVQLVESGGGLVQAGGSLRLSCAASGSTFSNNAMGWYRQAPGNERELVAAISRSGGSTYYADSVKGRFTISRDNAKNTVYLQMNSLKPEDTAVYYCAVSPRYYRNGGAHLQYDYWGQGTHVTVSS”, for which the “polyreactivity (PSR sort gate)” value was “high polyreactivity”. For the sequence “QVQLVESGGGLVQAGGSLRLSCAASGSTFSNNTMGWYRQAPGKERELVAAISWRGTRTYYADSVKGRFTISRDNAKNTVYLQMNSLKPEDTAVYYCNKLPTYPDYGYDSWGQGTQVTVSS”, the “polyreactivity (PSR sort gate)” value is recorded as “high polyreactivity”. As to “QVQLVESGGGLVQAGGSLRLSCAASGSTFSPNAMGWYRQAPGKERELVAAISGSGGSTYYADSVKGRFTISRDNAKNTVYLQMNSLKPEDTAVYYCAADSYYDGDYWGQGTQVTVSS”, the “polyreactivity (PSR sort gate)” value was “low polyreactivity”. Turning to “QVQLVESGGGLVQAGGSLRLSCAASGSTFSPNAMGWYRQAPGKERELVAAITWSGGSNTYADSVKGRFTISRDNAKNTVYLQMNSLKPEDTAVYYCAADTKYDNDYWGQGTQVTVSS”, the “polyreactivity (PSR sort gate)” value is “low polyreactivity”. Then “QVQLVESGGGLVQAGGSLRLSCAASGSTFSPYAMGWYRQAPGKERELVAAITRSGSSTYYADSVKGRFTISRDNAKNTVYLQMNSLKPEDTAVYYCAADTGVTRSYRYTSWRIKYESWGQGTQVTVSS”, with “low polyreactivity”; and “QVQLVESGGGLVQAGGSLRLSCAASGSTFSRNAMGWYRQAPGKERELVAAITQSGGRTYYADSVKGRFTISRDNAKNTVYLQMNSLKPEDTAVYYCNARGRRSGYISGYDYWGQGTQVTVSS”, with “high polyreactivity”; and “QVQLVESGGGLVQAGGSLRLSCAASGSTFSRNAMGWYRQAPGKERELVAAITSGGRTYYADSVKGRFTISRDNAKNTVYLQMNSLKPEDTAVYYCAAVHRYPIHYDYWGQGTQVTVSS”, with “low polyreactivity”. The value for “QVQLVESGGGLVQAGGSLRLSCAASGSTFSRYAMGWYRPAPGKERELVAAISGTDDSTYYADSVKGRFTISRDNAKNTVYLQMNSLKPEDTAVYYCAARLVESRYGFGYEYYYWGQGTQVTVSS” was “low polyreactivity”; that for “QVQLVESGGGLVQAGGSLRLSCAASGSTFSRYAMGWYRPAPGKERELVATITRGGSTNYADSVKGRFTISRDNAQNTVYLQMTSLKPEDTAVYYCNKTARYVDGRGDYWGQGTQVTVSS” was “low polyreactivity”; that for “QVQLVESGGGLVQAGGSLRLSCAASGSTFSRYAMGWYRQAPGKEREFVAAISRRAGGTYYADSVKGRFTISRDNAKNTVYLQMNSVKPEDTAVYYCAKVLPRDYIGRATYDYWGQGTQVTVSS” was “high polyreactivity”.

As for “QVQLVESGGGLVQAGGSLRLSCAASGSTFSRYAMGWYRQAPGKERELVAAISWSGASTYYADSVKGRFTISRDNAKNTVYLQMNRLKPEDTSVYYCAKVARQNWFRYYYDYWGQGTQVTVSS”, the “polyreactivity (PSR sort gate)” value is “high polyreactivity”.

With “QVQLVESGGGLVQAGGSLRLSCAASGSTFSRYTMGWYRQAPGKEWELVAAISFRASSTYYADSVKGRFTISRDNAKNTVYLQMNSLKPEDTAVYYCAARNVFRYRWPIEYDYWGQGTQVTVSS”, the “polyreactivity (PSR sort gate)” value is listed as “low polyreactivity”. Take “QVQLVESGGGLVQAGGSLRLSCAASGSTFSSNAMGWYRQAPGKERELVAAIDRGGSTYYADSVKGRFTISRDNAKNTVYLQMNSLKPEDNAVYYCNAERETYDYWGQGTQVTVSS”: the “polyreactivity (PSR sort gate)” value is listed as “low polyreactivity”. Turning to “QVQLVESGGGLVQAGGSLRLSCAASGSTFSSNAMGWYRQAPGKERELVAAINRTGNTYYADSVKGRFTISRDNEKNTVYLQMNSLKPEDTAVYYCNTDLNLYRGGGYWGQGTQVTVSS”, the “polyreactivity (PSR sort gate)” value was “low polyreactivity”. Consider “QVQLVESGGGLVQAGGSLRLSCAASGSTFSSYAMGWYRQAPGKERELVAAINWSRTRTYYADSVKGRFTISRDNAKNTVYFQMNSVIPEDTAVYYCAAPGFGETADYDYWGHGTQVTVSS”, for which the “polyreactivity (PSR sort gate)” value is “low polyreactivity”. The value for “QVQLVESGGGLVQAGGSLRLSCAASGSTFSSYGMGWYRQAPGKERELVAAITSSGGSTYYADSVKGRFTISRDNAKNTVYLQMNSLKPEDTAVYYCAASDVIFWLYYYWGQGTQVTVSS” was “low polyreactivity”; that for “QVQLVESGGGLVQAGGSLRLSCAASGSTFSSYVMGWYRQAPGKERELVAAISSIGGSTYYADSVKGRFTISRDNAKNTVYLQMNSLKPEDTAVYYCNADYVIYFGLYEYWGQGTQVTVSS” was “low polyreactivity”; that for “QVQLVESGGGLVQAGGSLRLSCAASGSTFSTNVMGWYRQAPGKERELVAAISTIGGSTYADSVKGRFTISRDNAKNTVYLQMNSLKPEDTAVYYCAAVFRVRRKTYGYWGQGTQVTVSS” was “high polyreactivity”.

As to “QVQLVESGGGLVQAGGSLRLSCAASGSTFSTYAMGWYRQAPGKERELVAAISRTGGSTYYADSVKGRFTISRDNAKNTVYLQMNSLKPEDTAVYYCAADEDWEYWAPWYDYWGQGTQVTVSS”, the “polyreactivity (PSR sort gate)” value is reported as “low polyreactivity”. The value for “QVQLVESGGGLVQAGGSLRLSCAASGSTFSTYAMGWYRQAPGKERELVARITRSDTGTYYADSVKGRFTISRDNAKNTGYLQMNSLKPEDTAVYYCAADGWYDDSGWYYGYDYWGQGTQVTVSS” was “low polyreactivity”.
